Results published in patent US20120190558A1.

Target: endogenous KCNH2-1A of rat cortical neurons (rat) (UniProt O08962)
Test: cell-based or functional assay

“Isoform 3.1 of KCNH2 (human) (from UniProt Q12809 103-1159)” showed a deactivation time constant (tau) of E-4031-sensitive tail current, slow component, at -100 mV of command potential of 7.43 fold and a fold decrease in deactivation time constant (tau) of E-4031-sensitive tail current, fast component, at -100 mV of command potential of 5.88 fold.
